Data set [1] deals with T1, MukB (E. coli, UniProt P22523 1-1486).
T1 construct: MukB, SMC-like condensin of Escherichia coli; also called condensin MukB; wild-type MukB
T1 sequence (looked up): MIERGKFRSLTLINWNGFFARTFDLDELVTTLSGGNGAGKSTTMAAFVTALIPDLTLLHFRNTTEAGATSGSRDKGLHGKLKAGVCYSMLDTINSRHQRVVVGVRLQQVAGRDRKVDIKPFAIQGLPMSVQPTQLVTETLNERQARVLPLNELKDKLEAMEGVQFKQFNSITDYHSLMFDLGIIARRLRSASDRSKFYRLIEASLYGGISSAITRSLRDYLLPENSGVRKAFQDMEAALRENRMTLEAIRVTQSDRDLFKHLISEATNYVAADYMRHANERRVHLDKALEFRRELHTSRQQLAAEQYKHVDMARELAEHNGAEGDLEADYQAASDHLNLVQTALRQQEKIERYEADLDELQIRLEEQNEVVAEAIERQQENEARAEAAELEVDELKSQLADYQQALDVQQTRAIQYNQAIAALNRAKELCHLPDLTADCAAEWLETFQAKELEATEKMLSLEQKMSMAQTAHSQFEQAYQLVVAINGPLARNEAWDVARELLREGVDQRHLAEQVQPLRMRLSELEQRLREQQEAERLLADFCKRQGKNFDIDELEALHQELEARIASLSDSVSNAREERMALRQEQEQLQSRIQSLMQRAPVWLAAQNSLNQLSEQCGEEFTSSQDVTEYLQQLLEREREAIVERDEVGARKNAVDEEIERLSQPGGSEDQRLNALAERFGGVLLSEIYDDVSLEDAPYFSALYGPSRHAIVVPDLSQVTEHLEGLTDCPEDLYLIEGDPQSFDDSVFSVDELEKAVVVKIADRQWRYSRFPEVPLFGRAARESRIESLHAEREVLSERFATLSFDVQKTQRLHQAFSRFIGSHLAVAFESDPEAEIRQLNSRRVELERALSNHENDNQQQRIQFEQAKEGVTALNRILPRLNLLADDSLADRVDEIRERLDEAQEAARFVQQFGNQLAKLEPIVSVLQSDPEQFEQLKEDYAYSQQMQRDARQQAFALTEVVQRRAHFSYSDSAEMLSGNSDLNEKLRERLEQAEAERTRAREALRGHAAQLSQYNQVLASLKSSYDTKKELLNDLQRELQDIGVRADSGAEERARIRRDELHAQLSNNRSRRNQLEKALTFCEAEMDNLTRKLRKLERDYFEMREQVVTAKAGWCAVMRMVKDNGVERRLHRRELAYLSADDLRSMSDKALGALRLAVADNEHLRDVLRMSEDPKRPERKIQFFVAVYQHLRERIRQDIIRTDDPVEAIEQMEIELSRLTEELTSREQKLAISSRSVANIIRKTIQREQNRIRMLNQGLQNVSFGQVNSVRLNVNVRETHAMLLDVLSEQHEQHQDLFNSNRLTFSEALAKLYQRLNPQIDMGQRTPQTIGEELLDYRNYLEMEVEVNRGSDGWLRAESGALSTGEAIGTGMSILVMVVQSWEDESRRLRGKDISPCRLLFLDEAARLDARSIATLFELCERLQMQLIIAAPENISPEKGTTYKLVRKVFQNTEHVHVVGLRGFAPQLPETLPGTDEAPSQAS
Briefly: pull-down; MukB (125 nM) held on Dynabeads Protein A through affinity-purified MukB polyclonal antibodies; varying ParC; 50 mM HEPES-KOH pH 7.5, 50 mM KCl, 0.5 mM Mg(OAc)2, 7.5% glycerol, 0.05% IGEPAL, 15 min at 37°C; bound protein read from SDS-PAGE bands; fit to the Hill equation; KD dimer to dimer. The note with it: both partners purified.

The target of a further data set is T2, MukBtriple (MukB3X) (Escherichia coli, UniProt P22523 1-1486, D697K;D745K;E753K).
T2 sequence: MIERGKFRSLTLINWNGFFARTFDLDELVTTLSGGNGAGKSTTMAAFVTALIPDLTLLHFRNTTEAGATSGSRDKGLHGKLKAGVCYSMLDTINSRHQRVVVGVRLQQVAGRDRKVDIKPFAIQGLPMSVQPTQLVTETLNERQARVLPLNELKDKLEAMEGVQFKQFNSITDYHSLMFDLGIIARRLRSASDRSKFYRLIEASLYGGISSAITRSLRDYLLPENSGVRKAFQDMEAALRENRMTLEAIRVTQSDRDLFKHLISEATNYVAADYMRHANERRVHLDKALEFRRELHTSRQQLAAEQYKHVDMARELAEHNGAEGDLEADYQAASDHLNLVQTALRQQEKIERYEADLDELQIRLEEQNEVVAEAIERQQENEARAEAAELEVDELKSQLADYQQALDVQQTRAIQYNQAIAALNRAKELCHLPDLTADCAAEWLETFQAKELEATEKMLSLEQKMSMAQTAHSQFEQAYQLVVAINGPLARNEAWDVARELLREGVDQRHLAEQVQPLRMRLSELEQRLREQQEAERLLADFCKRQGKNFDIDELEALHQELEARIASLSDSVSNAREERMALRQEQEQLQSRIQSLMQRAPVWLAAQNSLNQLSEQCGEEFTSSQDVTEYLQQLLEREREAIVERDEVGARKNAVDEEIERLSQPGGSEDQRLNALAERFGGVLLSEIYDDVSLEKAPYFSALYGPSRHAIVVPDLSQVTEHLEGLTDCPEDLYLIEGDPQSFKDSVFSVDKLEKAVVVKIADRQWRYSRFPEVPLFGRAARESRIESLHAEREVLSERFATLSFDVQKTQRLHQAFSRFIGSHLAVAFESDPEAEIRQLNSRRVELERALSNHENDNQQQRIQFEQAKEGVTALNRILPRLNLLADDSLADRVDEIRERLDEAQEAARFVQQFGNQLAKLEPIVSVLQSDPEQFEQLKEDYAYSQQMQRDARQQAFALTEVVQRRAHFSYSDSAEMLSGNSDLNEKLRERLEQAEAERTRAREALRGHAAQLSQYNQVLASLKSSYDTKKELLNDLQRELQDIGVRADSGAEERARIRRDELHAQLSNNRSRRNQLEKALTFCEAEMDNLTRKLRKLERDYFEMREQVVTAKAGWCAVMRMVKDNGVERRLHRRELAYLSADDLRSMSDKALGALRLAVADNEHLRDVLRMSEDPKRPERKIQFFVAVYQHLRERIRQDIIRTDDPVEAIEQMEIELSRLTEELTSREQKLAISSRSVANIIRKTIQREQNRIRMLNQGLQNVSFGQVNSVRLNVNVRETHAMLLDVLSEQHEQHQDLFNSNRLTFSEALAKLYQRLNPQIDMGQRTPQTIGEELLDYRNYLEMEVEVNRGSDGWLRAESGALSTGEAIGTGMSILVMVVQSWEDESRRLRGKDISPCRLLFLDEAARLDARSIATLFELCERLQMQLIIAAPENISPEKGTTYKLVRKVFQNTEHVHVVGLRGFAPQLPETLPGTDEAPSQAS
In words: DNA binding assay (method not stated in material); 0.5 mM Mg(OAc)2; apparent Kd; 50 mer binding: 50 mM HEPES-KOH pH 7.5, 10 mM DTT, 20 mM KCl, 0.5 mM Mg(OAc)2, 5 nM DNA; pull-down: same buffer plus 7.5% glycerol, 0.05% NP-40, loading at room temperature, assay at 37 C. The following applies: protein: recombinant; chain copies: 2; label: 5'-32P; blunt.

In data set [2] the target is T3, MukB (Escherichia coli, UniProt P22523 1-1486).
T3 sequence: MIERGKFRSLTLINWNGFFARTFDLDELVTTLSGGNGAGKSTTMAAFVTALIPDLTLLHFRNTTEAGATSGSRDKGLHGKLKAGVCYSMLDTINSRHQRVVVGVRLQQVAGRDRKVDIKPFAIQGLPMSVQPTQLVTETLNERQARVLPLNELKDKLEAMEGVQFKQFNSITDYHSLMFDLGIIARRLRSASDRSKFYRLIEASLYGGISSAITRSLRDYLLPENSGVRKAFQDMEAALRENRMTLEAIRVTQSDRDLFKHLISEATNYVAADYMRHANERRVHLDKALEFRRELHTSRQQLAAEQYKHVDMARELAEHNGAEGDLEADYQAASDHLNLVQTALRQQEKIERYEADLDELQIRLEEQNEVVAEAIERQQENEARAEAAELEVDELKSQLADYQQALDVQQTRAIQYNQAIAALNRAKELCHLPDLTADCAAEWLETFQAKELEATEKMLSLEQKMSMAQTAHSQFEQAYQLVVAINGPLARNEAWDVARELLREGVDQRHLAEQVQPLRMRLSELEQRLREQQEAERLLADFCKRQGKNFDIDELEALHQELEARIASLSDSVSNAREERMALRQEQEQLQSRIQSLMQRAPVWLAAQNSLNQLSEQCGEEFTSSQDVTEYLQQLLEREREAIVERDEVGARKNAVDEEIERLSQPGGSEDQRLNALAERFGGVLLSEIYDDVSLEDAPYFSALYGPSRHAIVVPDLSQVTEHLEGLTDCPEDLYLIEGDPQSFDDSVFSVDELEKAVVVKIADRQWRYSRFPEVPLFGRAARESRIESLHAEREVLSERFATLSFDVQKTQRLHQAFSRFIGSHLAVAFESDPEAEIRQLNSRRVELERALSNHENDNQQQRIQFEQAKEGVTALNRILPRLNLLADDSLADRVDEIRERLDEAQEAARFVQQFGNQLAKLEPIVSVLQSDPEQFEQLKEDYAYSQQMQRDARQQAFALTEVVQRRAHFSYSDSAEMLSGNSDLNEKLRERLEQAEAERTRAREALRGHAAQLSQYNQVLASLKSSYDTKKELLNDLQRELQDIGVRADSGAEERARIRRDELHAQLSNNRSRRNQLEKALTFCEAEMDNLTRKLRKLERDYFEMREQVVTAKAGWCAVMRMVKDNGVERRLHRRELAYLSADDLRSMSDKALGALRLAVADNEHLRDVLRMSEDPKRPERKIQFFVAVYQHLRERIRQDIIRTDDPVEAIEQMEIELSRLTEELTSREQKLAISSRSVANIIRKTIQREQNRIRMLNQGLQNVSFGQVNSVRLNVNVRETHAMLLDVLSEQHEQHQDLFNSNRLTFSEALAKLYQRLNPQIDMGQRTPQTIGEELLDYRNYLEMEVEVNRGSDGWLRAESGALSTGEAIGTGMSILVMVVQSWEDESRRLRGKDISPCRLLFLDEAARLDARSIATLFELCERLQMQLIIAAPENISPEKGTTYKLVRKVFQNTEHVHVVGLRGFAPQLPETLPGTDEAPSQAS
Described as above. The following applies: protein: recombinant; chain copies: 2; label: 5'-32P; blunt.

B1: ParC subunit of topoisomerase IV (natural protein, E. coli, UniProt P0AFI2 1-752, looked up)
chain: MSDMAERLALHEFTENAYLNYSMYVIMDRALPFIGDGLKPVQRRIVYAMSELGLNASAKFKKSARTVGDVLGKYHPHGDSACYEAMVLMAQPFSYRYPLVDGQGNWGAPDDPKSFAAMRYTESRLSKYSELLLSELGQGTADWVPNFDGTLQEPKMLPARLPNILLNGTTGIAVGMATDIPPHNLREVAQAAIALIDQPKTTLDQLLDIVQGPDYPTEAEIITSRAEIRKIYENGRGSVRMRAVWKKEDGAVVISALPHQVSGARVLEQIAAQMRNKKLPMVDDLRDESDHENPTRLVIVPRSNRVDMDQVMNHLFATTDLEKSYRINLNMIGLDGRPAVKNLLEILSEWLVFRRDTVRRRLNYRLEKVLKRLHILEGLLVAFLNIDEVIEIIRNEDEPKPALMSRFGLTETQAEAILELKLRHLAKLEEMKIRGEQSELEKERDQLQGILASERKMNNLLKKELQADAQAYGDDRRSPLQEREEAKAMSEHDMLPSEPVTIVLSQMGWVRSAKGHDIDAPGLNYKAGDSFKAAVKGKSNQPVVFVDSTGRSYAIDPITLPSARGQGEPLTGKLTLPPGATVDHMLMESDDQKLLMASDAGYGFVCTFNDLVARNRAGKALITLPENAHVMPPVVIEDASDMLLAITQAGRMLMFPVSDLPQLSKGKGNKIINIPSAEAARGEDGLAQLYVLPPQSTLTIHVGKRKIKLRPEELQKVTGERGRRGTLMRGLQRIDRVEIDSPRRASSGDSEE
notes: ParC, breakage and reunion subunit of topoisomerase IV of Escherichia coli; also called wild-type ParC; Cwt
B1 displayed a Kd with MukB [1] of 115 nM.

B2: 50mer duplex DNA (dsDNA)
DNA 1: ATCTCGGGCTATTCTTTTGATTTATAAGGGATTTTGCCGATTTCGGAACC
DNA 2: GGTTCCGAAATCGGCAAAATCCCTTATAAATCAAAAGAATAGCCCGAGAT
On to B2, for which the results for the Kd with MukBtriple (MukB3X) and with MukB [2] were 30 nM and 120 nM, respectively.

(Values after publication PMC8934648, “The MukB-topoisomerase IV interaction mutually suppresses their catalytic activities” (Nucleic Acids Research, 2021).)
